The numbers were not newly measured in article PMC6438182, which cites them from elsewhere.

The target of this data set is GATAD2A coiled-coil (Homo sapiens) (UniProt Q86YP4).
Sequence of UniProt Q86YP4 (Q86YP4 137-178): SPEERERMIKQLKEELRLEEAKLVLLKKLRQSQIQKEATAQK

For MBD2 coiled-coil (from UniProt Q9UBB5), the dissociation constant Kd (as a rule, the constant that tells how readily two partners part at equilibrium) was 42 nM.
